In PMC5515580 one finds Km of phosphorylation of Ser46 by immunoprecipitated MAST3 (32P incorporation, 10-500 nM substrate, 2 min; Figure 1b) and Km of phosphorylation of Ser46 by immunoprecipitated MAST3 (32P incorporation, 10-500 nM substrate, 2 min; Figure 1—figure supplement 1) data, which are given here for 2 molecules.

Substitutions are numbered along the chain they refer to. Numbers in names are those of the source.

For the assay, the target named is MAST3-HA (human) (UniProt O60307).
Chain of MAST3-HA (human) (O60307 313-1021): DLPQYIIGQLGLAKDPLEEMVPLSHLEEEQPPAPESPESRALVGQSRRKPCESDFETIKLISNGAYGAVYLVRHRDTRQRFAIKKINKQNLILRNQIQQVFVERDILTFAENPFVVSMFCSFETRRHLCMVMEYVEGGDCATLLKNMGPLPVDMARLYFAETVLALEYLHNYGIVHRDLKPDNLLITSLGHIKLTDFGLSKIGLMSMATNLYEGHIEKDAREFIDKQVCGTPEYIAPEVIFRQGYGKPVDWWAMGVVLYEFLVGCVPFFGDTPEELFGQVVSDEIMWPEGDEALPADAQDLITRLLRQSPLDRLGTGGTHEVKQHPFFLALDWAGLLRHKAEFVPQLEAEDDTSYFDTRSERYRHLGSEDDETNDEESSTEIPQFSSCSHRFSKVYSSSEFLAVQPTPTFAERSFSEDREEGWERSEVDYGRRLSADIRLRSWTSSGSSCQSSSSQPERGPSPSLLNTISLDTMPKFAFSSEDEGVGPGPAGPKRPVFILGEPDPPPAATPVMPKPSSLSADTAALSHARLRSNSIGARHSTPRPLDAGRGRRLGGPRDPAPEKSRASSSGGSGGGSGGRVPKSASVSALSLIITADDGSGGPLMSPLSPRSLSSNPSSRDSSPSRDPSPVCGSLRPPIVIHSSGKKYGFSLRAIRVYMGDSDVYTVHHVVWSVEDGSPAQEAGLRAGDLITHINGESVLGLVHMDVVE

B1: P-S88-ARPP-16 (natural protein)
chain: MEDKVTSPEKAEEAKLKARYPHLGQKPGGSDFLRKRLQKGQKYFDSGDYNMAKAKMKNKQLPTAAPDKTEVTGDHIPTPQDLPQRKPSLVASKLAG
modifications: phosphoserine at 88 (by PKA, to a maximal stoichiometry)
B1: the Km of phosphorylation of Ser46 by immunoprecipitated MAST3 (32P incorporation, 10-500 nM substrate, 2 min; Figure 1b) is 0.158 µM.

B2: 6xHis-S88D-ARPP-16 (natural protein)
chain: B1 chain with S88D
As for B2, the Km of phosphorylation of Ser46 by immunoprecipitated MAST3 (32P incorporation, 10-500 nM substrate, 2 min; Figure 1—figure supplement 1) is 0.138 µM.
